The chains are these.
B1: BRCA1-A complex subunit Abraxas 1 (Homo sapiens), Q6UWZ7 (parent)
chain: MEGESTSAVLSGFVLGALAFQHLNTDSDTEGFLLGEVKGEAKNSITDSQMDDVEVVYTIDIQKYIPCYQLFSFYNSSGEVNEQALKKILSNVKKNVVGWYKFRRHSDQIMTFRERLLHKNLQEHFSNQDLVFLLLTPSIITESCSTHRLEHSLYKPQKGLFHRVPLVVANLGMSEQLGYKTVSGSCMSTGFSRAVQTHSSKFFEEDGSLKEVHKINEMYASLQEELKSICKKVEDSEQAVDKLVKDVNRLKREIEKRRGAQIQAAREKNIQKDPQENIFLCQALRTFFPNSEFLHSCVMSLKNRHVSKSSCNYNHHLDVVDNLTLMVEHTDIPEASPASTPQIIKHKALDLDDRWQFKRSRLLDTQDKRSKADTGSSNQDKASKMSSPETDEEIEKMKGFGEYSRSPTF

In this assay the parent is B1. The following applies: with brca1_human BRCA1, P38398.
Sequence of brca1_human BRCA1, P38398 (P38398 whole entry, looked up): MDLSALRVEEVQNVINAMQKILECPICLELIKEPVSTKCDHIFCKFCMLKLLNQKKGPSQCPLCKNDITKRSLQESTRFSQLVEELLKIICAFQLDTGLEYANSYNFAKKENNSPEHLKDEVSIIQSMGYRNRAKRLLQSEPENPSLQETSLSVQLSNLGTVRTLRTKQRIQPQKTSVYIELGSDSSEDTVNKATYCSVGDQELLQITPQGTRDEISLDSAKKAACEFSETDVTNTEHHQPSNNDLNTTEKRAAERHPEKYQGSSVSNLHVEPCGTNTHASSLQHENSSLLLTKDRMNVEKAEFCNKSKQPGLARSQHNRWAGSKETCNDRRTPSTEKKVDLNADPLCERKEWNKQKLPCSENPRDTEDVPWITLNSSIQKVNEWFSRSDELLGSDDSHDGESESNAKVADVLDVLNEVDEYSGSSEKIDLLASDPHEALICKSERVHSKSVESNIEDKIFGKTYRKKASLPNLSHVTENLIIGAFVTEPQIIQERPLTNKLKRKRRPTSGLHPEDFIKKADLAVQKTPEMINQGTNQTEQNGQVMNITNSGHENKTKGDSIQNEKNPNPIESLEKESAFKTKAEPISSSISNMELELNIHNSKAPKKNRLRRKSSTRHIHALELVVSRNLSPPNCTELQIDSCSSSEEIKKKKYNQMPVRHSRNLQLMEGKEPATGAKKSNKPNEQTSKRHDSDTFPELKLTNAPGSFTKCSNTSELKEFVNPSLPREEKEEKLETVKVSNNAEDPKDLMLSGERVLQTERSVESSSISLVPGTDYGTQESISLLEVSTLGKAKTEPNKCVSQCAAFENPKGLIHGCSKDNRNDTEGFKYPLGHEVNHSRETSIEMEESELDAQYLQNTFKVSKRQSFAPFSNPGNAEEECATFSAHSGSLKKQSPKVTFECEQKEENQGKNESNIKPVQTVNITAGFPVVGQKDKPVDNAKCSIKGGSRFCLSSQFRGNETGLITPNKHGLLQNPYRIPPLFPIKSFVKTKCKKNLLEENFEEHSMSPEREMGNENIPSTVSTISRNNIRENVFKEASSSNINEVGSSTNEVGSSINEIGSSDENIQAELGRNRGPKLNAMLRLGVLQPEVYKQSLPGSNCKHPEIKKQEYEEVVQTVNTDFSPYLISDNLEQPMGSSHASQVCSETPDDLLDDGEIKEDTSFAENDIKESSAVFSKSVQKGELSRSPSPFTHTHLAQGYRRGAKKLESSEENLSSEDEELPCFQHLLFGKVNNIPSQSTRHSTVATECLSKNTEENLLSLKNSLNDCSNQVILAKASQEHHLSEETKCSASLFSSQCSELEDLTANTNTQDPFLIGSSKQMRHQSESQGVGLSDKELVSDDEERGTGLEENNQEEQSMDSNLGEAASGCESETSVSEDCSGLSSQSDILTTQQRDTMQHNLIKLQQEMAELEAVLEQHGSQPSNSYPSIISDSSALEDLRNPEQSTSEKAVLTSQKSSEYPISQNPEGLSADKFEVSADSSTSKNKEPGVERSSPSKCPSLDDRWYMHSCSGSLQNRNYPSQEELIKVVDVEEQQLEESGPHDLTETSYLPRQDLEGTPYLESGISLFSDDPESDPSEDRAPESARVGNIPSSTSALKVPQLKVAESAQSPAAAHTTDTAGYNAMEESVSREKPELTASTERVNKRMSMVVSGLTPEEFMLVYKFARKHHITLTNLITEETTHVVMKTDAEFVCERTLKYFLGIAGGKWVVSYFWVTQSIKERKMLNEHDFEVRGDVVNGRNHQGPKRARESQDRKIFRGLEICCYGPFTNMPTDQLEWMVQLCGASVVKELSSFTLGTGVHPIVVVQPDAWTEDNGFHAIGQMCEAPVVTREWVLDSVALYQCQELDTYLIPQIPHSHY
Turning to S406A, the “effect of a mutation on the interaction” value is on record as “decreasing interaction”.

The values above are taken from IntAct's records for PubMed 17643121.
